Our source for the Kd values is article PMC7065885.

Assay [1] addresses murine CD11b I-domain (mouse). As to the kind of experiment: SPR.
In assay [2] the target is human CD11b I-domain (human). As to the kind of experiment: SPR.

Sequence of murine CD11b I-domain (mouse) (P05555 17-1153): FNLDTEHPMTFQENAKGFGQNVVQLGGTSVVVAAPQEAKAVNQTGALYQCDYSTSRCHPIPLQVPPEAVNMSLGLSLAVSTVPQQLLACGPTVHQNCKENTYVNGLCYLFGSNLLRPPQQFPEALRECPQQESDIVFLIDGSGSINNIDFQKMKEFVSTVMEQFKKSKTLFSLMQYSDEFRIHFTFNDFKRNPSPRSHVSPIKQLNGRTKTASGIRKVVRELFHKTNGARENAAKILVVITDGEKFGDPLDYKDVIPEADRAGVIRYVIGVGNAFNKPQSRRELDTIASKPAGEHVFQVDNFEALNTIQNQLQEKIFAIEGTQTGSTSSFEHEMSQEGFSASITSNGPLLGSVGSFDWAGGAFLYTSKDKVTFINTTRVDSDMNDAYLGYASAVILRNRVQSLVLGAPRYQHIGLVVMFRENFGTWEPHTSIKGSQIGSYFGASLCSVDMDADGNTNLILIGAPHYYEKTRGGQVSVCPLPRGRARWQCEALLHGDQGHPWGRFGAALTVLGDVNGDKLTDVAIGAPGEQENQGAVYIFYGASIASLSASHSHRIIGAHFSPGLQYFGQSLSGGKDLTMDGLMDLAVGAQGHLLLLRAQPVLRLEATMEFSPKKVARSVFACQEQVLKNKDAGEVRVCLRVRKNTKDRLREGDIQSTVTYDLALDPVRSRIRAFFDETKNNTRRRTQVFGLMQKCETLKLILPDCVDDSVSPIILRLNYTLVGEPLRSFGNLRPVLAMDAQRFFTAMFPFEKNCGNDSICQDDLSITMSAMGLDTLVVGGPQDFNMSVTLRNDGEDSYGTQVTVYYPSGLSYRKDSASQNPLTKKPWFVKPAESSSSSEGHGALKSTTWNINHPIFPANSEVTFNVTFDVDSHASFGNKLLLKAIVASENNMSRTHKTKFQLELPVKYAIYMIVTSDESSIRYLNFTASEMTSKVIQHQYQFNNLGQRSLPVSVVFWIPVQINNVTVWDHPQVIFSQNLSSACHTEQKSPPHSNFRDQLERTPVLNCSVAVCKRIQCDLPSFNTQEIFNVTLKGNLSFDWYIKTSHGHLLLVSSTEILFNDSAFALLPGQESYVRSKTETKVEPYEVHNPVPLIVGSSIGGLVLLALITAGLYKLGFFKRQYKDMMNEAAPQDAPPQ

For LukAB (complex), the values for the Kd in assay [1] and in assay [2] were 247 µM and 0.0393 µM, respectively.
